Results taken from US9751918B2, “Transgenic plants expressing cobalamin binding proteins” (XERAGENX LLC, priority 2001, dated 2017).
One block for each molecule: values may come before it.

Assays:
[1] = Competitive binding of 57Co-labelled cobalamin versus unlabelled cobalamin; details: 57Co-cobalamin mixed with increasing non-radioactive cobalamin, bound fraction by gamma counter
Procedure: (§1) Equal amounts of the respective proteins were added to a mixture containing a fixed amount of cobalt (57Co) labelled cobalamin mixed with increasing amounts of non-radioactive cobalamin or cobinamide (X axis). Free and bound ligand were separated and the amount of 57Co attached to the protein was measured in a gamma counter. The 57Co fraction bound relative to the amount of 57Co bound in the absence of unlabeled cobalamin or cobinamide was calculated (Y axis).
as §1, with “Both recombinant proteins were extracted form transgenic Arabidopsis thaliana plants. Equal” for “Equal”, “(57Co) labeled” for “(57Co) labelled”, “of nonradioactive” for “of non-radioactive”, “ligand was” for “ligand were”, “of unlabelled” for “of unlabeled”
(§2) One kilogram of three week old IF-plants was homogenization with 2 liters of phosphate buffer and clarified by centrifugation. This extract contained 100 mg recombinant human IF with CBC. This IF had specificity for cobalamin binding whereas the analog cobinamid was not bound by the IF as tested by the method described by (15).

[2] = Competitive binding of 57Co-labelled cobalamin versus unlabelled cobinamide; details: 57Co-cobalamin mixed with increasing non-radioactive cobinamide; bound fraction by gamma counter
Procedure: as §1
as §1, with “Both recombinant proteins were extracted form transgenic Arabidopsis thaliana plants. Equal” for “Equal”, “(57Co) labeled” for “(57Co) labelled”, “of nonradioactive” for “of non-radioactive”, “ligand was” for “ligand were”, “of unlabelled” for “of unlabeled”
as §2

[3] = target: human intestinal receptor protein cubilin (Homo sapiens, UniProt O60494); assay: BIAcore 2000 binding of intrinsic factor to immobilized cubilin; details: for binding to cubilin, holo-form: intrinsic factor saturated with vitamin B12 (holo-form); for binding to cubilin, apo-form: intrinsic factor unsaturated with vitamin B12 (apo-form)
Procedure: The binding between intrinsic factor and its receptor cubilin was analysed employing a BIAcore 2000 instrument (Biacore AB, Uppsala, Sweden). An increase in Resp. Diff. (Y axis) indicates binding between intrinsic factor and cubilin. At time approximately 100 a solution with intrinsic factor is added to the immobilized cubilin. Intrinsic factor was isolated from transgenic plants, human gastric juice and hog stomach. Preparations of vitamin B 12 saturated and vitamin B12 unsaturated intrinsic factor were used. At time approximately 600 intrinsic factor is removed from the solution and the dissociation between cubilin and intrinsic factor is followed.

[4] = listed as native intrinsic factor
[5] = listed as recombinant intrinsic factor

Chain of human intestinal receptor protein cubilin (O60494 36-3623): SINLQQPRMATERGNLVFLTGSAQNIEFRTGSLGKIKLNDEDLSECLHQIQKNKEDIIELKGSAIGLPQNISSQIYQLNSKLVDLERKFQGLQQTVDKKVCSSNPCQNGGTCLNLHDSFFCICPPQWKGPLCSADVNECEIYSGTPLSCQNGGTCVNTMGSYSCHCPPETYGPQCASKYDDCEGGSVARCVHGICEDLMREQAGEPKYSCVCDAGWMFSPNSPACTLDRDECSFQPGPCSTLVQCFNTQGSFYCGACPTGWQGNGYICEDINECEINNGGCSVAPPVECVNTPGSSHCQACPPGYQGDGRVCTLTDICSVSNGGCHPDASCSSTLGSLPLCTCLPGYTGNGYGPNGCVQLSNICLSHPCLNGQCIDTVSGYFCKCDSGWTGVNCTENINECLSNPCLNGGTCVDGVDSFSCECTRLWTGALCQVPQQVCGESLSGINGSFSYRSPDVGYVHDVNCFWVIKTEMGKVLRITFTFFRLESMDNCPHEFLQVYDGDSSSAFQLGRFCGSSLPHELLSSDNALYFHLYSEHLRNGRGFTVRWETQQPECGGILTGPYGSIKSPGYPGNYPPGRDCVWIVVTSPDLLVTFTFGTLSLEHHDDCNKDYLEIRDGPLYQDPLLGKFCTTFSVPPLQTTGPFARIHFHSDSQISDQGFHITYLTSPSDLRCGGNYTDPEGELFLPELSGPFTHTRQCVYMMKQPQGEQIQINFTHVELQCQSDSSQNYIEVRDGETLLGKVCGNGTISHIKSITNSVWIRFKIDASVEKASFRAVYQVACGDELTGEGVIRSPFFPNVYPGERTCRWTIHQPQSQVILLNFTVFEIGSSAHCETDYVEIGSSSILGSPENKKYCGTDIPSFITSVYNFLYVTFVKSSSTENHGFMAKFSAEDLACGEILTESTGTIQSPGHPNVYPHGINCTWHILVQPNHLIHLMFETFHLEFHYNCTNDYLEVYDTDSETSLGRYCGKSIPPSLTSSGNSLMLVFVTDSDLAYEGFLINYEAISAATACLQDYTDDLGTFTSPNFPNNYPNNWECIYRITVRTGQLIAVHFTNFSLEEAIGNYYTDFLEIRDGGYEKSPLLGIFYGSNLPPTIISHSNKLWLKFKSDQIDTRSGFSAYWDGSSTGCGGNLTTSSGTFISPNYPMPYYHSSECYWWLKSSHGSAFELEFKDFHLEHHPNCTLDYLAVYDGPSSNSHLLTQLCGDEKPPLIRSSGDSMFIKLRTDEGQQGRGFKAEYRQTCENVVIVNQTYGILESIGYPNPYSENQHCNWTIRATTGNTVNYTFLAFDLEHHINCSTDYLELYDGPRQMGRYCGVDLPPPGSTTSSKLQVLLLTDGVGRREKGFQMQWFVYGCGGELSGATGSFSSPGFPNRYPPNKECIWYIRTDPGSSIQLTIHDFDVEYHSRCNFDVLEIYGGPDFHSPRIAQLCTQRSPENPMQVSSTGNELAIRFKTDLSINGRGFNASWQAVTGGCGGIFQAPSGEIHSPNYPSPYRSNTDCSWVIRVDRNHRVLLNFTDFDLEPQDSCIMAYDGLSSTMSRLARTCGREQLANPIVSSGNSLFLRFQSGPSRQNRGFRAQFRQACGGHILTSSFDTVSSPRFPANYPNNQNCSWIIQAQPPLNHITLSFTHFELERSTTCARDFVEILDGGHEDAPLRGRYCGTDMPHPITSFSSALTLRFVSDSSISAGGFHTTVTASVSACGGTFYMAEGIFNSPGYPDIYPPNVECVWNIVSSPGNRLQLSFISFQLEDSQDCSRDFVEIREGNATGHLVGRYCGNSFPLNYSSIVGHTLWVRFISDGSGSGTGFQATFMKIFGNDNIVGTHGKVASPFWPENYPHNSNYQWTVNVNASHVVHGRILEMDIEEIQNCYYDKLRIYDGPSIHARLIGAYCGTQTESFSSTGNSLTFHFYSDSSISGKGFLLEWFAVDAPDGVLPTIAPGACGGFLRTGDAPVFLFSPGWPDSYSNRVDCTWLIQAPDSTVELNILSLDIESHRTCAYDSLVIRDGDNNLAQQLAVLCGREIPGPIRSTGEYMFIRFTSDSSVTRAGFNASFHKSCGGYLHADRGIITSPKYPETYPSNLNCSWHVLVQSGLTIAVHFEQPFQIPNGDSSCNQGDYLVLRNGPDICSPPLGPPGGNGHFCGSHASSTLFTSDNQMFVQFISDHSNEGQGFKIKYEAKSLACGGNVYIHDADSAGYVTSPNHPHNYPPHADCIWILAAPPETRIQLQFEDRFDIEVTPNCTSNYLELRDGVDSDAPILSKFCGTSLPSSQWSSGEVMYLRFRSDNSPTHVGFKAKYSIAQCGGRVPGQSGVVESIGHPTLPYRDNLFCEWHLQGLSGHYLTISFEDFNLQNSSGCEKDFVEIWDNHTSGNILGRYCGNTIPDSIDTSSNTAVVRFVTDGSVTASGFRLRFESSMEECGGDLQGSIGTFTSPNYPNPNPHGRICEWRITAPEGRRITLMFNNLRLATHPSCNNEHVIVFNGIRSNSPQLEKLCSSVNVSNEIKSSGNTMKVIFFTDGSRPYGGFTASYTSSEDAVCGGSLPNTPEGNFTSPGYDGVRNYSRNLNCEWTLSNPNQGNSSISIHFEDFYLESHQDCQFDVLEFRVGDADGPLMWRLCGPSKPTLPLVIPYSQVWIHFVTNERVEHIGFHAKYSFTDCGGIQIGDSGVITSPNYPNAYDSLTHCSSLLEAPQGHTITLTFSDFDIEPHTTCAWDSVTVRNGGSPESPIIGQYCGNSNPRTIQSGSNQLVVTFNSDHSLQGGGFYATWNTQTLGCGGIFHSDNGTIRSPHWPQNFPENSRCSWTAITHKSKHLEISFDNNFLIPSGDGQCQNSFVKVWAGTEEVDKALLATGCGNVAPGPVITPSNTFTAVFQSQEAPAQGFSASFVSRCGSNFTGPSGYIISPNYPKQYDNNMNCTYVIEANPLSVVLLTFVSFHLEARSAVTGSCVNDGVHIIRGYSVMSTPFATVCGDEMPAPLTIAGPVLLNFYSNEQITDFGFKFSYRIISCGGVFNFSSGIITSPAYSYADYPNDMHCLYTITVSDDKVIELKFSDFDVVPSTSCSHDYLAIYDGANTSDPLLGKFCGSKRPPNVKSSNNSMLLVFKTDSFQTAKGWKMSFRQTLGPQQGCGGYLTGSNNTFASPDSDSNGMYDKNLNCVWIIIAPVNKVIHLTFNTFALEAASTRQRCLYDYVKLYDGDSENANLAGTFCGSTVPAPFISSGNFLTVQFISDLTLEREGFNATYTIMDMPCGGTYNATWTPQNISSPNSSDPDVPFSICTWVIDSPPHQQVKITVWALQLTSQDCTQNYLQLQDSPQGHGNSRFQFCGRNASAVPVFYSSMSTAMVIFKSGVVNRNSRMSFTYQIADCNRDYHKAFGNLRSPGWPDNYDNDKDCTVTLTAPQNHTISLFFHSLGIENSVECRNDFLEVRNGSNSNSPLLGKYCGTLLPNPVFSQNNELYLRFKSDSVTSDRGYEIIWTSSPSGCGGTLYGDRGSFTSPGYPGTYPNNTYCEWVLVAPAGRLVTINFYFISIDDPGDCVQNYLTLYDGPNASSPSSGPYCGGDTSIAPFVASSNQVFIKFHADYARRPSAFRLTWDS
Chain of human intestinal receptor protein cubilin (P27352 19-417 partner): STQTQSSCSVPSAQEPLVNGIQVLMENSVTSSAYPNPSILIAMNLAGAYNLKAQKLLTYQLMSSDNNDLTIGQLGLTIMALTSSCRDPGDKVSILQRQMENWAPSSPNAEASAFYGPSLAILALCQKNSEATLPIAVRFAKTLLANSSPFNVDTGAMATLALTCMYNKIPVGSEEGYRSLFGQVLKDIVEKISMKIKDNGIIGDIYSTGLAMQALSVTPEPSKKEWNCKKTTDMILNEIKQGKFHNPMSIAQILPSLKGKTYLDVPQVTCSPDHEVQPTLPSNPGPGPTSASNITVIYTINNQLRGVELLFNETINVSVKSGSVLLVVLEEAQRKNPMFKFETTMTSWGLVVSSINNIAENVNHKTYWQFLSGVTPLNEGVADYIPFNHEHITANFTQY

- ability to bind cobalamin [1]: specificity for binding Cbl
- ability to bind cobalamin ([1]; listed as native IF): specificity for binding cobalamin
- ability to bind cobinamid [2]: not cobinamid
- binding to cubilin, holo-form ([3]; listed as human gastric IF): bind to the cubulin receptor
- binding to cubilin, holo-form [3, 4]: binds to cubilin
- binding to cubilin, apo-form ([3]; listed as human gastric IF): only when in holo-form
- binding to cubilin, apo-form [3, 4]: only when saturated with vitamin B12
Molecule: native human gastric IF: Native intrinsic factor present in / isolated from human gastric juice, used for comparison [reference compound]

- ability to bind cobalamin [1]: specificity for binding Cbl
- ability to bind cobalamin ([1]; listed as recombinant IF): specificity for binding cobalamin
- ability to bind cobalamin ([1]; listed as recombinant human intrinsic factor): bind cobalamin
- ability to bind cobinamid [2]: not cobinamid
- binding to cubilin, holo-form [3]: binds
- binding to cubilin, holo-form [3, 5]: binds to cubilin
- binding to cubilin, apo-form [3]: does not bind
- binding to cubilin, apo-form [3, 5]: only when saturated with vitamin B12
Molecule: rhIF from plants: Recombinant human intrinsic factor extracted from transgenic Arabidopsis thaliana plants (mature sequence SEQ ID NO:4)

- ability to bind cobalamin [1]: binds to Cbl
- ability to bind cobalamin ([1]; listed as recombinant human transcobalamin): bind cobalamin
- ability to bind cobinamid [2]: not cobinamid
B1: rhTC: Recombinant human transcobalamin extracted from transgenic Arabidopsis thaliana plants (mature sequence SEQ ID NO:11) (protein)
chain: EMCEIPEMDSHLVEKLGQHLLPWMDRLSLEHLNPSIYVGLRLSSLQAGTKEDLYLHSLKLGYQQCLLGSAFSEDDGDCQGKPSMGQLALYLLALRANCEFVRGHKGDRLVSQLKWFLEDEKRAIGHDHKGHPHTSYYQYGLGILALCLHQKRVHDSVVDKLLYAVEPFHQGHHSVDTAAMAGLAFTCLKRSNFNPGRRQRITMAIRTVREEILKAQTPEGHFGNVYSTPLALQFLMTSPMPGAELGTACLKARVALLASLQDGAFQNALMISQLLPVLNHKTYIDLIFPDCLAPRVMLEPAAETIPQTQEIISVTLQVLSLLPPYRQSISVLAGSTVEDVLKKAHELGGFTYETQASLSGPYLTSVMGKAAGEREFWQLLRDPNTPLLQGIADYRPKDGETIELRLVSW
modifications: plant-expressed; homo sapiens
